Assay results reported in PMC11005422.

Columns and labels:
[1] = target: ClpC1 (NTD residues 1-156 removed, E284A/E622A/F440A) (Streptomyces hawaiiensis NRRL 15010); assay: cryo-EM structure; ClpC1 added to the pre-formed shClpP1P2 complex with fluorescein-labeled casein and ATP; conformations A (2.94 Å) and B (3.0 Å), C1
[2] = target: shClpP1 (first 29 residues removed, S113A) (Streptomyces hawaiiensis NRRL 15010); assay: cryo-EM structure; apo shClpP1P2, C7 symmetry imposed, 2.34 Å (free shClpP1P2 particles of the ClpC1 sample; a second reconstruction at 2.88 Å from the shClpP1P2 sample); SEC buffer 20 mM HEPES, 150 mM KCl, 5% glycerol, pH 7.5
[3] = target: shClpP1 alone (sample of Fig. S1A) (Streptomyces hawaiiensis NRRL 15010); assay: not stated; Fig. S1A (not shown): purified proteins in solution; a shClpP1 sample was also put on cryo-EM grids
[4] = target: shClpP2 (first 49 residues removed, S131A) (Streptomyces hawaiiensis NRRL 15010); assay: cryo-EM structure; apo shClpP1P2, C7 symmetry imposed, 2.34 Å (free shClpP1P2 particles of the ClpC1 sample; a second reconstruction at 2.88 Å from the shClpP1P2 sample); SEC buffer 20 mM HEPES, 150 mM KCl, 5% glycerol, pH 7.5

With “ClpC1 (NTD residues 1-156 removed, E284A/E622A/F440A) (enzyme)” the stoichiometry N [1] was 6.
“shClpP1 (first 29 residues removed, S113A) (enzyme)” gave a stoichiometry N [2] of 7.
“shClpP1 alone (sample of Fig. S1A) (enzyme)” showed a stoichiometry N [3] of 7.
“shClpP2 (first 49 residues removed, S131A) (enzyme)” was tested, and the stoichiometry N [4] was 7.
